In patent US20230363418A1, “COMPOSITION FOR PREVENTING OR TREATING NEUROPSYCHOLOGIC DISEASE, COMPRISING MANF” (CEFO CO., LTD., priority 2020, published 2023):

Legend:
[1] = system: IBO-administered memory impairment and autism model; assay: Passive avoidance test; type: in vivo, rat; details: MANF-AAV-hMSC transplanted into the hippocampus of IBO rats
Method: Memory impairment and autism models were prepared by administering IBO to the entorhinal cortex of the rats, wherein the IBO destroys granule cells of the dentate gyrus (DG) and pyramidal cells of the hippocampus, which receive nerve signals input from the entorhinal cortex. Specifically, the rats were anesthetized with equitensin (10% ethanol containing 350 mM pentobarbital sodium, 250 mM chloral hydrate, 85 mM MgSO and 40% propylene glycol). The incisor bar of a stereotaxic device (Stoelting Co., U.S.A.) was placed 3.4 mm below the interaural line, and the injection needle angle was fixed at […] right from the center of the sagittal plane. 1.5 ul of IBO (1 mg/ml) was injected into the entorhinal cortex of the rat using the stereotaxic device. The IBO was injected into three locations of first, AP: -8.4, ML: -4.8, DV: -4.6; Second, AP; -8.4, ML: -4.8, DV: […]; Third, AP: -8.8, ML: - 3.65, DV: -3.4 (FIG. 7). […]
It was performed according to the method described in Heo Het al. (2009) for the same number of rats as in each group of Example 6-1. […] Exactly 24 hours after the adaptation training, the rats were placed in the bright room again, and the latency time to enter the dark room was measured for 720 seconds (confinement experiment).

[2] = system: IBO-administered memory impairment and autism model; assay: Open space behavior test (anxiety behavior); type: in vivo, rat
Method: Memory impairment and autism models were prepared by administering IBO to the entorhinal cortex of the rats, wherein the IBO destroys granule cells of the dentate gyrus (DG) and pyramidal cells of the hippocampus, which receive nerve signals input from the entorhinal cortex. Specifically, the rats were anesthetized with equitensin (10% ethanol containing 350 mM pentobarbital sodium, 250 mM chloral hydrate, 85 mM MgSO and 40% propylene glycol). The incisor bar of a stereotaxic device (Stoelting Co., U.S.A.) was placed 3.4 mm below the interaural line, and the injection needle angle was fixed at […] right from the center of the sagittal plane. 1.5 ul of IBO (1 mg/ml) was injected into the entorhinal cortex of the rat using the stereotaxic device. The IBO was injected into three locations of first, AP: -8.4, ML: -4.8, DV: -4.6; Second, AP; -8.4, ML: -4.8, DV: […]; Third, AP: -8.8, ML: - 3.65, DV: -3.4 (FIG. 7).
After 2-3 IBO injections, each group was randomly classified into an IBO-administrated group (negative control group), and a GFP-AAV-hMSC-administrated group (GFP-AAV) and a MANF-AAV-hMSC-administrated group […] as a control group. A rest period of one week was provided. […]

[3] = system: hippocampal-derived neural stem cells; assay: Immunoblotting of differentiation markers (NeuN, GAD65/67, vGAT) in differentiating neural progenitor cells; type: cell-based, rat
Method: To determine the optimal dose of MANF to promote the expression of differentiation markers in neural progenitor cells, immunoblotting experiments were performed using NeuN antibody that labels the nuclei of mature neurons, glutamic acid decarboxylase (GAD65/67) and vesicular […] (vGAT) that label GABAergic nerve cells.
Specifically, hippocampal-derived neural stem cells were isolated from the brain of E16 rat embryos. Hippocampal ridges were minced from the embryonic forebrains of E16 rats using sterile fine tweezers under a dissecting microscope. The tissues were collected, mechanically separated using a pipette in Ca^2+/Mg^2+-freeHBSS (Invitrogen) solution, and planted at 19,000 cells/cm^2 in 35 mm culture dishes precoated with 15 µg/ml poly-L-ornithine and 1 µg/ml fibronectin (Sigma). The cells were cultured under the condition of 5% CO2 for 3 days using a serum-free N2 medium (medium for proliferation) supplemented with 10 ng/mL basic fibroblast growth factor(bFGF, Invitrogen). Thereafter, the cells were removed using 0.05% trypsin/EDTA (ethylene-diamine-tetraacetic acid), and neural progenitor cells were planted on a 12 mm glass coverglass (Belco) for immunostaining and on a 100 mm dish for immunoblotting and cultured in N2 medium for proliferation containing bFGF for 1 day. Thereafter, in the proliferation condition, the medium continuously containing bFGF was treated with MANF at the indicated concentration and cultured for 2-3 days; and in the differentiation condition, MANF was added to the medium for differentiation not containing bFGF, which was cultured for 3-7 days. In the control group (vehicle), physiological saline was added in the same volume instead of MANF.
After 3-7 days of differentiation of the cultured neural stem cells, the medium was removed and washed once with PBS (Phosphate-buffered saline). Then, all the cells were lysed using a lysis buffer to which a protease inhibitor was added. The lysate was loaded in a 10% gel in the same volume, then transferred to a PVDF (Polyvinylidene Fluoride) membrane and blocked with 2% BSA in TBST or 5% skim milk in TBST at room temperature for 1 hour. As primary antibodies, rb-GAD65/67 (1:1000), mo-NeuN (1:1000), mo-Vgat (1:700), and mo-actin (1:2000) were used, and the primary antibodies were diluted with 2% BSA in TBST, reacted at 4° C. for 16 hours, and then washed with […]. As secondary antibodies, mo-HRP (1:5000) and rb-HRP (1:5000) were used, and the secondary antibodies were diluted in 2% skim milk in TBST or 2% BSA in TBST, reacted for 1 hour, and then developed on films. As control antibodies, mo-tubulin (Millipore, 05-661, 1:2000) and mo-actin (Santa cruz, SC-47778, 1:2000) were used.

[4] = MANF at 30 ng (tested 10-50 ng/ml), differentiation condition, vs vehicle

B1: MANF: one of 16 or more growth factors secreted into nerve stem cells by cerebrovascular cells; amino acid sequence of SEQ ID NO: 1 (protein)
chain: MRRMWATQGLAVALALSVLPGSRALRPGDCEVCISYLGRFYQDLKDRDVTFSPATIENELIKFCREARGKENRLCYYIGATDDAATKIINEVSKPLAHHIPVEKICEKLKKKDSQICELKYDKQIDLSTVDLKKLRVKELKKILDDWGETCKGCAEKSDYIRKINELMPKYAPKAASARTDL
modifications: MANF
[1]
  memory ability in passive avoidance test: memory improvement
[2]; compared to the IBO group
  time in the center: significantly increased
[2]; compared to the MSC group
  time in the center: also increased
[3]; [4]
  NeuN protein increase (immunoblotting): 1.6 fold
  amount of GAD65/67 protein increase (immunoblotting): about 2.5 fold
  amount of vGAT protein increase (immunoblotting): about 2.5 fold
[3]; tested 10-50 ng/ml
  optimal dose of MANF (NeuN, GAD65/67 and vGAT protein all increased the most): 30 ng/mL
